Experimental data reported in PMC11589706, “Cryo-EM structure of PML RBCC dimer reveals CC-mediated octopus-like nuclear body assembly mechanism” (Cell Discovery, 2024).

B1: MBP-PML_(46–256) (domain or fragment, human, UniProt P29590 46-256, looked up)
chain: PASEEEFQFLRCQQCQAEAKCPKLLPCLHTLCSGCLEASGMQCPICQAPWPLGADTPALDNVFFESLQRRLSVYRQIVDAQAVCTRCKESADFWCFECEQLLCAKCFEAHQWFLKHEARPLAELRNQSVREFLDGTRKTNNIFCSNPNHRTPTLTSIYCRGCSKPLCCSCALLDSSHSELKCDISAEIQQRQEELDAMTQALQEQDSAFGA
notes: Monomer and dimer fractions were separated by SEC; The cryo-EM model covers P46-S221; also called PML RBCC fragment; PML RBCC dimer; source: E. coli BL21(DE3), purified (amylose column, Superdex 200 Increase SEC); not shown: MBP, N-terminal, kept
B2: PML_(46–362) (domain or fragment, human, UniProt P29590 46-362, looked up)
chain: PASEEEFQFLRCQQCQAEAKCPKLLPCLHTLCSGCLEASGMQCPICQAPWPLGADTPALDNVFFESLQRRLSVYRQIVDAQAVCTRCKESADFWCFECEQLLCAKCFEAHQWFLKHEARPLAELRNQSVREFLDGTRKTNNIFCSNPNHRTPTLTSIYCRGCSKPLCCSCALLDSSHSELKCDISAEIQQRQEELDAMTQALQEQDSAFGAVHAQMHAAVGQLGRARAETEELIRERVRQVVAHVRAQERELLEAVDARYQRDYEEMASRLGRLDAVLQRIRTGSALVQRMKCYASDQEVLDMHGFLRQALCRLRQE
notes: PML (TRIM19), human, residues 46-362, the complete RBCC domain; also called truncated protein PML_(46–362); complete RBCC domain; source: E. coli BL21(DE3), purified; not shown: MBP, N-terminal, cleaved
B3: MBP-PML_(46–362) (domain or fragment, human, UniProt P29590 46-362, looked up)
chain: B2 chain
notes: PML (TRIM19), human, residues 46-362; source: E. coli BL21(DE3), purified; not shown: MBP, N-terminal, kept
B4: MBP-PML_(46–391) (domain or fragment, human, UniProt P29590 46-391, looked up)
chain: PASEEEFQFLRCQQCQAEAKCPKLLPCLHTLCSGCLEASGMQCPICQAPWPLGADTPALDNVFFESLQRRLSVYRQIVDAQAVCTRCKESADFWCFECEQLLCAKCFEAHQWFLKHEARPLAELRNQSVREFLDGTRKTNNIFCSNPNHRTPTLTSIYCRGCSKPLCCSCALLDSSHSELKCDISAEIQQRQEELDAMTQALQEQDSAFGAVHAQMHAAVGQLGRARAETEELIRERVRQVVAHVRAQERELLEAVDARYQRDYEEMASRLGRLDAVLQRIRTGSALVQRMKCYASDQEVLDMHGFLRQALCRLRQEEPQSLQAAVRTDGFDEFKVRLQDLSSCIT
notes: source: E. coli BL21(DE3), purified; not shown: MBP, N-terminal, kept

Columns and labels:
[1] = molecular target: the molecule itself; experiment: cryo-EM structure; MBP-PML_(46–256) dimer fraction from SEC, ~3 mg/mL; non-tilt and 40°-tilt data; C2 symmetry imposed; 5.3 Å overall
[2] = molecular target: the molecule itself; experiment: cross-linking; XL-MS: purified SEC fractions crosslinked with 2 mM BS3 at 4 °C for 2 h; trypsin digest, LC-MS/MS, pLink2; intra-subunit XLs of the monomer fraction subtracted from those of the dimer
[3] = molecular target: the molecule itself; experiment: SEC; analytical size exclusion on Superdex 200 Increase 10/300 GL in 20 mM HEPES, pH 7.4, 100 mM NaCl, 4% glycerol; all truncations N-terminally fused to MBP

Row | Protein | binding result [3] | further results
1 | B1 | – | stoichiometry N [1]: 2
2 | B2 | – | binding result [2]: binds
3 | B3 | binds | –
4 | B4 | binds | –
